Positions count from the first letter of the chain named. Values belong to the binder of their own block, whether it stands above or below them.
Legend:
[1] = target: T1, HA-α-SNAP M105I (hyh mutant) (human, UniProt P54920 1-295, M105I); experiment: co-IP
T1 sequence: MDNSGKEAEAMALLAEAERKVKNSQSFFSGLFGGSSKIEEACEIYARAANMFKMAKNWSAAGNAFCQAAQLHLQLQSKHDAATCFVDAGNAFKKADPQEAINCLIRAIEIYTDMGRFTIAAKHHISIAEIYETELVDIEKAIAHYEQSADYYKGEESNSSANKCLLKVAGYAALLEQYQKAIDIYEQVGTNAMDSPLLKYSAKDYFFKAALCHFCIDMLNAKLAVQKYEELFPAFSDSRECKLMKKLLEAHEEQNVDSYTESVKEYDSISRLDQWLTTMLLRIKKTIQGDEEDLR

[2] = target: FLAG-tagged AMPK-γ1 (wild type) (UniProt P54619 1-331); experiment: pull-down
Sequence of FLAG-tagged AMPK-γ1 (wild type) (P54619 whole entry): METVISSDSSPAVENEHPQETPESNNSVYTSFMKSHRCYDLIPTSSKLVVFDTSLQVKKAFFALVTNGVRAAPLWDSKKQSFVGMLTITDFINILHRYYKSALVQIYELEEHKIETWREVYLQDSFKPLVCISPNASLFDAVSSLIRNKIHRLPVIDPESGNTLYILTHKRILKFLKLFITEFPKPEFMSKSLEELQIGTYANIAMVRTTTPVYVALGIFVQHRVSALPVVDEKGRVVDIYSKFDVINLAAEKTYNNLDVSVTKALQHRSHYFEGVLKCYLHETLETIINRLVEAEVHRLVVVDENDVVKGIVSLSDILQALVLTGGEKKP

fold increase in co-immunoprecipitation against WT α-SNAP [1]: ~2 fold
B1: FLAG-AMPKα2 (natural protein)
chain: MAEKQKHDGRVKIGHYVLGDTLGVGTFGKVKIGEHQLTGHKVAVKILNRQKIRSLDVVGKIKREIQNLKLFRHPHIIKLYQVISTPTDFFMVMEYVSGGELFDYICKHGRVEEMEARRLFQQILSAVDYCHRHMVVHRDLKPENVLLDAHMNAKIADFGLSNMMSDGEFLRTSCGSPNYAAPEVISGRLYAGPEVDIWSCGVILYALLCGTLPFDDEHVPTLFKKIRGGVFYIPEYLNRSVATLLMHMLQVDPLKRATIKDIREHEWFKQDLPSYLFPEDPSYDANVIDDEAVKEVCEKFECTESEVMNSLYSGDPQDQLAVAYHLIIDNRRIMNQASEFYLASSPPSGSFMDDSAMHIPPGLKPHPERMPPLIADSPKARCPLDALNTTKPKSLAVKKAKWHLGIRSQSKPYDIMAEVYRAMKQLDFEWKVVNAYHLRVRRKNPVTGNYVKMSLQLYLVDNRSYLLDFKSIDDEVVEQRSGSSTPQRSCSAAGLHRPRSSFDSTTAESHSLSGSLTGSLTGSTLSSVSPRLGSHTMDFFEMCASLITTLAR

fold increase in binding with ATP against no nucleotide [2]: 2 fold
B2: purified recombinant α-SNAP (His-tagged, wild type) (natural protein)
chain: T1 sequence with I105M

— PMC3595137 (Nature communications, 2013)
